Literature values in publication PMC2686754.

Experiments:
BMP4 (Homo sapiens) = BMP4 (Homo sapiens) (UniProt P12644)
TGF-β1 (Homo sapiens) = TGF-β1 (Homo sapiens) (UniProt P01137)
Sequence of UniProt P01137 (P01137 279-390): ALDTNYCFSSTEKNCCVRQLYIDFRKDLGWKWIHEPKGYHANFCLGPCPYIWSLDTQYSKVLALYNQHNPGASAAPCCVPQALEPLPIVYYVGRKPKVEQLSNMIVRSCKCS

Sequence of UniProt P12644 (P12644 293-408): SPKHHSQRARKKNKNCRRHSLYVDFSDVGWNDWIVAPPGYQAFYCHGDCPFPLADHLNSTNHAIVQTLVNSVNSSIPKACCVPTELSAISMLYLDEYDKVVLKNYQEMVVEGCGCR

- Kd (BMP4 (Homo sapiens)): 5 nM
- Kd (TGF-β1 (Homo sapiens)): 30 nM
Substance: CCN2 (from UniProt P29279)
